This note sets out measurements from paper PMC8136814.

The target of the assay is R3B2 1-273 (RIIID and first dsRBD) (Mucor lusitanicus). The assay can be described thus: SEC-MALS. In general terms: SEC sorts molecules by how far they enter the pores of the column.

As a reminder, the stoichiometry N is a count of units in the complex or per binding partner. In the case of “R3B2 1-273 (RIIID and first dsRBD) (domain or fragment)”, the stoichiometry N worked out at 2.
